The values below come from patent US20080131908A1 (Genentech, published 2008).

Assay [1] has as its target human Notch3 (full-length) (human) (UniProt Q9UM47). The experiment in a line: FACS on Sup-T1 cells (native Notch3).
Assay [2] shares this target. The experiment in a line: FACS on 293T cells transiently transfected with Notch3/Hygromycin.
Assay [3] deals with T1, Notch3-LD/Fc fusion protein (human, UniProt Q9UM47 1378-1640).
T1 construct: A signal peptide was linked to the N-terminus (not identified, left out); not described; also called Notch3/Fc fusion protein
T1 sequence: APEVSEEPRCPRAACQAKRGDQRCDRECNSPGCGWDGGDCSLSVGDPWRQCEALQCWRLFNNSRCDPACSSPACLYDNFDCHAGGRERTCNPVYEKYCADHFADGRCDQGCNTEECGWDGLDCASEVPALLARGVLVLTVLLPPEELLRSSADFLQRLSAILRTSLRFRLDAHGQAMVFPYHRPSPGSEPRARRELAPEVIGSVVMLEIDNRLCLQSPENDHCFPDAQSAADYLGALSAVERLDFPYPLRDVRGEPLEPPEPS
The experiment in a line: ELISA, hybridoma supernatant on coated Notch3-LD/Fc (0.1 ug/ml); control beside 256A-13. For orientation: In an ELISA, binding on a coated surface is turned into a signal by an enzyme label.

Assay [4] addresses Notch3-EGF/Fc fusion protein (human) (UniProt Q9UM47). The experiment in a line: ELISA, hybridoma supernatant on coated Notch3-EGF/Fc (0.1 ug/ml); control beside 255A-71.
The target is the same in assay [5]. Description: ELISA, hybridoma supernatant on coated Notch3-EGF/Fc (0.1 ug/ml); control beside 255A-77.
The target of a further assay is T2, Notch3-LDTM/V5 (human, UniProt Q9UM47 1378-1664, limits assumed).
T2 construct: not shown: V5 tag at the C-terminus
T2 sequence: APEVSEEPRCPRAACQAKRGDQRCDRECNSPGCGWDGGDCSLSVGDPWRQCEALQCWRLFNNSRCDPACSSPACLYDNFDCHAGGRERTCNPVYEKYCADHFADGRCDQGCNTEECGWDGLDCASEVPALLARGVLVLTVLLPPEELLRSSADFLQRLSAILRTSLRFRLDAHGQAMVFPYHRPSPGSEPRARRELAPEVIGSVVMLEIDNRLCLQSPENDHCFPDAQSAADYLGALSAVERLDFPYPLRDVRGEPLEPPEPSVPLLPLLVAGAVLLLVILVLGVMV
Description: cell-based FMAT assay on cells expressing Notch3-LDTM. As for the experimental part: Cell-based antibody-binding was assessed using FMAT™ 8100 HTS System (Applied Biosystems, Foster City, Calif.) and protocol provided by the manufacturer with some modification. Cell lines expressing Notch3 were seeded in 96-well plates at a density of 30,000-50,000 cells per well. After 20-24 hours, anti-Notch3 mAbs and 1×PBS reaction buffer were added to the wells and incubated for one hour at 37° C. Cy-5-conjugated anti-mouse IgG antibody was added to the wells after removal of primary antibodies. The fluorescent intensity of bound antibody was measured by FMAT™ 8100 HTS System.

Assay [6] has as its target T1, Notch3-LD/Fc fusion protein. Description: Western blot, denaturing conditions. The procedure: Western blot was performed to assess anti-Notch3 mAbs binding activity to Notch3 under denaturing condition. For this purpose, purified Notch3-EGF/Fc and Notch3-LD/Fc fusion proteins were combined with protein loading buffer (BioRad, Hercules, Calif.). Protein samples were also prepared from the transiently or stably transfected cells described in Example 1, which were harvested from culture dishes, washed once with phosphate buffered saline (PBS), resuspended in deionized water, and heated at 100° C. for 10 minutes after adding equal volume of 2× protein sample loading buffer (BioRad, Hercules, Calif.). All samples were separated by electrophoresis in a 4-15% gradient SDS-PAGE (BioRad, Hercules, Calif.). The proteins were transferred from gel to PVDF membrane (BioRad, Hercules, Calif.) and anti-Notch3 mAbs were applied to the Western blot membrane as the primary detection antibody. An HRP-conjugated secondary antibody was used for detection and the signal generated using a Supersignal Chemiluminescent Substrate (Pierce, Rockford, Ill.) as described above.
Background: A western blot detects proteins with antibodies after separation by electrophoresis.

Chain of Notch3-EGF/Fc fusion protein (human) (Q9UM47 43-1377): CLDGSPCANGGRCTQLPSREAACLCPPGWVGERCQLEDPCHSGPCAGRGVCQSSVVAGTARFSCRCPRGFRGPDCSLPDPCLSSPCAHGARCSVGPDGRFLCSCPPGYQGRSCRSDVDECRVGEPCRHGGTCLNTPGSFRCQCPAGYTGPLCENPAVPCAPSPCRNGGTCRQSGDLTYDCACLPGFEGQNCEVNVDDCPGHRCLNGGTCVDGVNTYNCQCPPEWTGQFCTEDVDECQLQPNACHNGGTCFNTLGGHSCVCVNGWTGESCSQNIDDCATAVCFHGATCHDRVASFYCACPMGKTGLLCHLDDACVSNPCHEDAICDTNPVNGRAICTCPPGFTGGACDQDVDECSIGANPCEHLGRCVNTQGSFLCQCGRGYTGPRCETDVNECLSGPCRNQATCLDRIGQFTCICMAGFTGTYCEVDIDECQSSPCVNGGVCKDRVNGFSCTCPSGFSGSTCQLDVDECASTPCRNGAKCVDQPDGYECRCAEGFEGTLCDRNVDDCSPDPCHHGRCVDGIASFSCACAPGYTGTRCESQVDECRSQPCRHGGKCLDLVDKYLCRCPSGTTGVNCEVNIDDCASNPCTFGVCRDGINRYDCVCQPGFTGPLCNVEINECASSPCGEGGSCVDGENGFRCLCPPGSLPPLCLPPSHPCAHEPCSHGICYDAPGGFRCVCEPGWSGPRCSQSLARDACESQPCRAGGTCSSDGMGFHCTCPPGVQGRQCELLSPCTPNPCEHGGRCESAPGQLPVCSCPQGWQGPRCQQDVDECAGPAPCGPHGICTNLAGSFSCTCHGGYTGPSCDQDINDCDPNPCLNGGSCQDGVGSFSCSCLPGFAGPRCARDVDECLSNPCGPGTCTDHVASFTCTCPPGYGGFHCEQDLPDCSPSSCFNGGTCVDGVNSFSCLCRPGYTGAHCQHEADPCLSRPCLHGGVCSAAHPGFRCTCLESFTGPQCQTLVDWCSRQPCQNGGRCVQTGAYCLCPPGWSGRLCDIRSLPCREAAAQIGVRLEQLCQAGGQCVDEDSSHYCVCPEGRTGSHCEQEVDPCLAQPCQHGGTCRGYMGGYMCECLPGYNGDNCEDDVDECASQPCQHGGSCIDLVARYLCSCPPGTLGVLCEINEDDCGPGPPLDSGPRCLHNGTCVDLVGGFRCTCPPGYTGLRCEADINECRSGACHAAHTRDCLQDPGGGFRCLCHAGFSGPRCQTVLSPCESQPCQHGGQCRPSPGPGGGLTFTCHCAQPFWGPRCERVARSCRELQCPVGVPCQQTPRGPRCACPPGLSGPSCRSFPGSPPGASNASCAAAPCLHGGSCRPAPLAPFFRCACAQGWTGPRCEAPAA
Chain of human Notch3 (full-length) (human) (Q9UM47 40-2321 A2223V limits assumed): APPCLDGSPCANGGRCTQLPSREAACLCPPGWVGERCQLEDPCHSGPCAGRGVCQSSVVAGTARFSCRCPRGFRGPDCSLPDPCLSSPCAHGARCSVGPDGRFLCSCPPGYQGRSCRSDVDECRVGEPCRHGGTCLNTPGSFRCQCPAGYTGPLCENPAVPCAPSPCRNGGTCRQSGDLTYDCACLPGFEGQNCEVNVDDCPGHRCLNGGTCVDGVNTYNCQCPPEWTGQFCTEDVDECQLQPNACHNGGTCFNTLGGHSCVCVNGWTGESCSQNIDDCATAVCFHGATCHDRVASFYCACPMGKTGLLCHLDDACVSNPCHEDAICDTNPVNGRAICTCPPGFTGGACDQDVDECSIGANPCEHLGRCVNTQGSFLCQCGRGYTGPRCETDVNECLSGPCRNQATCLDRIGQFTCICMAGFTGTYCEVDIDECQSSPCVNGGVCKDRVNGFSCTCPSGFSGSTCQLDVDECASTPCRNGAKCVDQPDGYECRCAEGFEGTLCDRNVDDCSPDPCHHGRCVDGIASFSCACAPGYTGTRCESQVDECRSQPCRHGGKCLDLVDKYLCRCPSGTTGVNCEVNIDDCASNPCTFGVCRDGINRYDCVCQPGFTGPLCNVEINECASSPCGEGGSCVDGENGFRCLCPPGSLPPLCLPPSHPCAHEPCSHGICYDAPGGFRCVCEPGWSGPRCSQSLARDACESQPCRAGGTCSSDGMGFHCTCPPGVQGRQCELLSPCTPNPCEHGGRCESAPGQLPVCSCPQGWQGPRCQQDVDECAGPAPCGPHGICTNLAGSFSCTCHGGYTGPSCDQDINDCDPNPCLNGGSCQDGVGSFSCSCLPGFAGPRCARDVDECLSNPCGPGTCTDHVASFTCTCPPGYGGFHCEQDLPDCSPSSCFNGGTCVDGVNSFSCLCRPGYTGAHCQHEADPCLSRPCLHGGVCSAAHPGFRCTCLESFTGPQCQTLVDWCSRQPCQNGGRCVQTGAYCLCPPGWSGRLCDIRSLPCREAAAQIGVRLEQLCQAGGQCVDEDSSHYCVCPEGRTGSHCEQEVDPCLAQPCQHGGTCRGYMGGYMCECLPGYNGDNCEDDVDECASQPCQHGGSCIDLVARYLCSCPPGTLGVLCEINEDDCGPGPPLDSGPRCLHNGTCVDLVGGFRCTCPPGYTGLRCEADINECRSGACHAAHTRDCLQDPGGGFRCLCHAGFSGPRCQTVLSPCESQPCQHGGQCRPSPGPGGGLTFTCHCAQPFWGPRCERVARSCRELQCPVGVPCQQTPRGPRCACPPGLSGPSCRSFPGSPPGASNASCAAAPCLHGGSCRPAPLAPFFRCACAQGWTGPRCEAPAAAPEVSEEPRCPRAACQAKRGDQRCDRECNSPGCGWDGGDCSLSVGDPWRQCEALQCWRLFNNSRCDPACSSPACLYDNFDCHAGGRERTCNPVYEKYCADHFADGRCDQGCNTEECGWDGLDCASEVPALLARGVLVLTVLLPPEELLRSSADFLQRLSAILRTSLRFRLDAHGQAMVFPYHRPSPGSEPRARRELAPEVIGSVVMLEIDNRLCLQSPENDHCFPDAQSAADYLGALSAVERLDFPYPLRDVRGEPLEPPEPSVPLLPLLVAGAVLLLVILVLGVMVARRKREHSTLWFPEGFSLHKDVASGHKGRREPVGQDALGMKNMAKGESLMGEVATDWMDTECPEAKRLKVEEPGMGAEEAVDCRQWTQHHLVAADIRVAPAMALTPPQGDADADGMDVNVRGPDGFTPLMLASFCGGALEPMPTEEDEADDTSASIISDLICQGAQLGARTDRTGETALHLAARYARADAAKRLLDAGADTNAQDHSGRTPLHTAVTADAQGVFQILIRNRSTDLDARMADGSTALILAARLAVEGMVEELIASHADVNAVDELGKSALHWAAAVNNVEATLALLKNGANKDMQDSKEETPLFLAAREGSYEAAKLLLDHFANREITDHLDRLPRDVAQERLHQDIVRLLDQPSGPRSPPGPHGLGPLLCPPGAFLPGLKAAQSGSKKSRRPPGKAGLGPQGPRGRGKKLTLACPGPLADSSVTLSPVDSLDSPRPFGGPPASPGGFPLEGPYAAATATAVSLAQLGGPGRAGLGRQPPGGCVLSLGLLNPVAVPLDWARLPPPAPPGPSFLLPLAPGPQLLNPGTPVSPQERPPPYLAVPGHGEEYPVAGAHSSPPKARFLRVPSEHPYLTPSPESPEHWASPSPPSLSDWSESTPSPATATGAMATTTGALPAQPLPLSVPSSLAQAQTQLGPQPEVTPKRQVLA

In the case of Control IgG1 (antibody), the figures for the mean fluorescence intensity in assay [1] and in assay [2] were 24.5 MFI and 24.2 MFI, respectively.

Turning to “Control hybridoma supernatant (antibody)”, the results for the ELISA OD at 450 nm (mean) in assay [3], in assay [4] and in assay [5] were 0.019 OD, 0.01 OD and 0.019 OD, respectively.

B1: anti-Notch 3 monoclonal antibody mAb 255A-77 (antibody, V domains shown)
VH: QVQLQQSGDDLVKPGASVKLSCKASGYTFTSYWINWIKQRPGQGLEWIGHIGPGSGSTYYNEIFKGKATLTVDTSSSTAYIQLSSLSSEDSAVYFCVLTRYFYAMDYWGQGTSVTVSS
VL: DIVMTQSPSSLAVTAGEKVTMRCKSSQSLLWSVNQNNYLSWYQQKQGQPPKLLIYGASIRESWVPDRFTGSGSGTDFTLTISNVHVEDLAVYYCQHNHGSFLPLTFGAGTKLELKR
notes: Mouse hybridoma mAb raised against Notch3-EGF/Fc
Take B1: the binding result (with Notch3-LDTM/V5; in assay [6]) was “no binding” each time.

B2: anti-Notch 3 monoclonal antibody mAb 255A-71 (antibody, V domains shown)
VH: DVQLQESGPGLVKPSQSLSLTCSVTGYSITSGYYWNWIRQFPGNKLEWMGFISYDGSNNYNPSLKNRISITRDTSKNQFFLKLNSVTTEDTATFYCATLYYDYDGNYFDYWGQGTTLTVSS
VL: CDIQMTQTTSSLSASLGDRVTISCRTSQDISNYLNWYQQKPDGTVKLLIYYTSRLHSGVPSRFSGSGSGTDYSLTISNLEQEDIATYFCQQGNALPLTFGPGTKLELKR
notes: as for B1
On to B2, for which the binding result (with Notch3-LDTM/V5; in assay [6]) was “no binding” each time.
